This is an account of results in US20240010750A1 (Bayer, published 2024).

Like-named read-outs stand apart in the source and are kept apart here.

Assay [1] addresses T1, human alpha2-Antiplasmin (human, UniProt P08697 40-491).
T1 sequence: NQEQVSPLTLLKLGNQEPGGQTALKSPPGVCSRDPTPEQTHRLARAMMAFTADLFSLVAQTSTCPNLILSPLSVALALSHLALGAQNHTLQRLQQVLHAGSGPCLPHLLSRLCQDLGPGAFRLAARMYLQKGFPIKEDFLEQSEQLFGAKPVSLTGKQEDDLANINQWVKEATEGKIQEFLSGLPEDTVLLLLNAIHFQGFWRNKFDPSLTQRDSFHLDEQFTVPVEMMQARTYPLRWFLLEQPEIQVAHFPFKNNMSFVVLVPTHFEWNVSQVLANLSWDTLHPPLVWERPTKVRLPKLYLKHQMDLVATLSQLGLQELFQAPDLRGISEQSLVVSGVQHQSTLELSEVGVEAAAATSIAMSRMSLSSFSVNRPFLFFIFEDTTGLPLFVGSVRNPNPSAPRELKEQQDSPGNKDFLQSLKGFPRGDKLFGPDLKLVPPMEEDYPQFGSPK
Briefly: cell-based or functional assay.

The target in the next assay is human Plasmin (human, UniProt P00747 97-580; P00747 581-810, limits assumed). Put plainly: cell-based or functional assay.
Assay [2] has as its target T1, human alpha2-Antiplasmin. Put plainly: ELISA, coated antigen, 1st exp. The procedure: (§1) A standard ELISA format was used for analyzing the binding affinity of Fabs of this invention to human and rabbit alpha-2-Antiplasmin, respectively. Antigens were coated to black 384 well Maxisorp microtiter plates (Nunc; catalogue number 460518), diluted to a concentration of 1 μg/ml in 1× Coating Buffer (Candor Bioscience; catalogue number 121125). Plates were incubated overnight at 4° C. After overnight incubation, plates were washed 2× with 50 μl/well using PBS+0.05% Tween 20. Following this, 50 μl/well of blocking buffer (Smart Block; Candor Bioscience; catalogue number 113500) was added and the plates were incubated for 1 hour at room temperature. Afterwards, plates were washed for 3× using […] PBS+0.05% Tween 20 buffer. Fabs of this invention were added at different concentrations in a final volume of 30 μl/well. Plates were incubated for 1 hour at room temperature. Following this incubation step, plates were washed for 3× using 50 μl/well of a PBS+0.05% Tween 20 buffer. For the detection of bound Fabs and full-length antibodies, the anti-Human Lambda Light Chains (Bound and Free)—Peroxidase antibody (Sigma; catalogue number A5175) was diluted by the factor of 1:10.000 in 10% Blocking Buffer. 30 μl/well of this diluted detection antibody was added and plates are incubated for 1 hour at room temperature. Following this incubation step, plates were washed for 3× using 50 μl/well of a PBS+0.05% Tween 20 buffer. As substrate, a mixture of 30 μl/well of 1:1000 diluted Amplex red (Invitrogen; catalogue number 12222; stock solution 10 mM in DMSO) and 1:10.000 of Hydrogen peroxide (Merck; catalogue number 107209; 30% stock solution) was added and the plates incubated for minutes in the dark.
(§2) For measurement, the Infinite f500 reader (Tecan) was used. Measurement mode: Fluorescence; Top reading; Ex 535 nm; Em 590 nm.
(§3) According to the methods described in Example 3 and Example 4, antibodies TPP-14323, TPP-14318, TPP-14314, TPP-14313, TPP-14308, TPP-14305, TPP-14303, TPP-14298, and TPP-14293 were tested for their ability to bind to and to block the activity of human alpha2-Antiplasmin in a dose-dependent manner. For each antibody, one dose response curve from two to three independent experiments performed in quadruplicate is shown as example in FIG. 7.1 to FIG. 7.18. (see Table 3.3)
(In an ELISA, binding on a coated surface is turned into a signal by an enzyme label.)

The target in assay [3] is T1, human alpha2-Antiplasmin. Briefly: ELISA, coated antigen, 2nd exp. The procedure: as §1, §2, §3
The target in assay [4] is T1, human alpha2-Antiplasmin. Briefly: ELISA, coated antigen, 3rd exp. On the procedure:
as §1, §2, §3

For assay [5], the target named is T1, human alpha2-Antiplasmin. Briefly: cell-based or functional assay. This is another data set of the same source.
Assay [6] concerns the target T1, human alpha2-Antiplasmin. Briefly: cell-based or functional assay. This is another data set of the same source.
The target in assay [7] is T1, human alpha2-Antiplasmin. Put plainly: cell-based or functional assay. The source holds these as a separate data set.
In assay [8] the target is T1, human alpha2-Antiplasmin. Put plainly: cell-based or functional assay. The source holds these as a separate data set.
In assay [9] the target is T1, human alpha2-Antiplasmin. Put plainly: ELISA (Example 3), human alpha2-Antiplasmin coated, RFU. The procedure: as §1, with “30 μl/well of this diluted detection antibody was added and plates are incubated for 1 hour at room temperature. Following this incubation step, plates were washed for 3× using 50 μl/well of a PBS+0.05% Tween 20 buffer. As substrate, a mixture of 30 μl/well of 1:1000 diluted Amplex red (Invitrogen; catalogue number 12222; stock solution 10 mM in DMSO) and 1:10.000 of Hydrogen peroxide (Merck; catalogue number 107209; 30% stock solution) was added and the plates incubated for minutes in the dark.” left out
as §2

Assay [10] has as its target T1, human alpha2-Antiplasmin. Briefly: ELISA, coated antigen, quantified unpurified antibody, 1st exp.
Assay [11] concerns the target T1, human alpha2-Antiplasmin. Briefly: ELISA, coated antigen, quantified unpurified antibody, 2nd exp.
Assay [12] concerns the target T1, human alpha2-Antiplasmin. Briefly: SPR Biacore T200, antibody captured on protein G chip, A2AP as analyte, 25 C. The procedure:
(§4) Binding assays were performed on a Biacore T200 instrument at 25° C. with a protein G sensor chip and assay buffer HBS-EP+. Antibodies were captured to ˜150 RU and analytes were used at concentrations between 1.56 and 200 nM for full kinetics. As interaction partner, alpha2-Antiplasmin from human, cynomolgus and rabbit was used. Regeneration was performed with glycine-HCl pH 1.5. Kinetic parameters were derived by fitting experimental sensorgrams to a 1:1 Langmuir binding model.
(In general: Surface plasmon resonance follows binding to a sensor surface in real time, without labels.)

For assay [13], the target named is T2, rabbit alpha2-Antiplasmin (rabbit (Oryctolagus cuniculus)).
T2 construct: Made in house in HEK293 cells, purified by Ni-IMAC and SEC (a His tag is implied but not described); also called rabbit A2AP; Oryctolagus cuniculus A2AP
T2 chain: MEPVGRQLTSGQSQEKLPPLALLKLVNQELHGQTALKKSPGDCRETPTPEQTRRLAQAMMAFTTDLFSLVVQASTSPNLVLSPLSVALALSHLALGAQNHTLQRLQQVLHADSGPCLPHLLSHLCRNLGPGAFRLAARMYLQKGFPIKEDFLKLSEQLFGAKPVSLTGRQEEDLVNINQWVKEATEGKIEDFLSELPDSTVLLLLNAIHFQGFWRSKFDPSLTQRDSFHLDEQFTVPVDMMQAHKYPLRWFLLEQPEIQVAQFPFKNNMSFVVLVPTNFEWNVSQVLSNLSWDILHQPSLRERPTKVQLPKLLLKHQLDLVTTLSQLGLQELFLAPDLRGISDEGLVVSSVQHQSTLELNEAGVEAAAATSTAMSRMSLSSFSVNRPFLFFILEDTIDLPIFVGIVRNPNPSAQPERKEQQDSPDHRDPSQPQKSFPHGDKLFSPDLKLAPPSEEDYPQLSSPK
Described as above. On the procedure:
as §4

Assay [14] has as its target T3, cynomolgus alpha2-Antiplasmin (cynomolgus (Macaca fascicularis), UniProt P08697 28-491 (human entry)).
T3 construct: Made in house in the same way as the rabbit protein; also called cynomolgus A2AP; Macaca fascicularis A2AP
T3 chain: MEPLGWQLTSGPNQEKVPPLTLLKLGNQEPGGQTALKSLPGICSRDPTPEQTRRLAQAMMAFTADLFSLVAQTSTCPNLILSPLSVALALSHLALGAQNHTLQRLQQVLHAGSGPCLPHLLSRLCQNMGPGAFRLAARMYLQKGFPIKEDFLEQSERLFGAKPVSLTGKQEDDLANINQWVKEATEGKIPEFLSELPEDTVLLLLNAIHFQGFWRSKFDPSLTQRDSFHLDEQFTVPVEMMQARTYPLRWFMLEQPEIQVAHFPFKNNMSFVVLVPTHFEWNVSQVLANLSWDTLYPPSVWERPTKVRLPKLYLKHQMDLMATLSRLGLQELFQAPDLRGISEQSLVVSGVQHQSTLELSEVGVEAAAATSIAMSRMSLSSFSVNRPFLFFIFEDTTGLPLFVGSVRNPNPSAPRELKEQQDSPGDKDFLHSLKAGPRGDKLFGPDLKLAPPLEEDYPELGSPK
Described as above. The procedure:
as §4

The target in assay [15] is T1, human alpha2-Antiplasmin. Briefly: cell-based or functional assay. The source holds these as a separate data set.
Assay [16] addresses T1, human alpha2-Antiplasmin. Briefly: ELISA (Example 3), human alpha2-Antiplasmin coated, RFU. On the procedure: as §1, with “As substrate, a mixture of 30 μl/well of 1:1000 diluted Amplex red (Invitrogen; catalogue number 12222; stock solution 10 mM in DMSO) and 1:10.000 of Hydrogen peroxide (Merck; catalogue number 107209; 30% stock solution) was added and the plates incubated for minutes in the dark.” left out
as §2
According to the method described in Example 3, these 12 antibodies were tested for ability to bind human and rabbit alpha2-Antiplasmin in a dose-dependent manner. Data generated were analyzed using the GraphPadPrism software. The binding activities of the antibodies were calculated as EC50 values. […]
The source holds these as a separate data set.

In assay [17] the target is T1, human alpha2-Antiplasmin. Briefly: ELISA, coated antigen, quantified unpurified antibody, 3rd exp. On the procedure: as §1, §2

Sequence of human Plasmin (P00747 97-580 limits assumed, chain 1 of 2): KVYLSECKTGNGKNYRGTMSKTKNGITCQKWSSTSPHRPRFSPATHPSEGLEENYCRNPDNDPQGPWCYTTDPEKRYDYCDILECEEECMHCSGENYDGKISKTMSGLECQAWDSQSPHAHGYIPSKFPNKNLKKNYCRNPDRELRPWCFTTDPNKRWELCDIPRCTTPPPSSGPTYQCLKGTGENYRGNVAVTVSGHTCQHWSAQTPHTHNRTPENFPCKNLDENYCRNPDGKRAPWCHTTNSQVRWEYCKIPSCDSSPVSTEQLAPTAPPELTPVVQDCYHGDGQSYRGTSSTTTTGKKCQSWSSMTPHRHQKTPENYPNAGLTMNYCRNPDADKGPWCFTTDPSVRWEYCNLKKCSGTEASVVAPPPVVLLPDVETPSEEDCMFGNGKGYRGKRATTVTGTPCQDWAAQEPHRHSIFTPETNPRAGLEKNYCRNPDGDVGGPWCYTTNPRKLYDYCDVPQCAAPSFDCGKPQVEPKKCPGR
Sequence of human Plasmin (P00747 581-810 limits assumed, chain 2 of 2): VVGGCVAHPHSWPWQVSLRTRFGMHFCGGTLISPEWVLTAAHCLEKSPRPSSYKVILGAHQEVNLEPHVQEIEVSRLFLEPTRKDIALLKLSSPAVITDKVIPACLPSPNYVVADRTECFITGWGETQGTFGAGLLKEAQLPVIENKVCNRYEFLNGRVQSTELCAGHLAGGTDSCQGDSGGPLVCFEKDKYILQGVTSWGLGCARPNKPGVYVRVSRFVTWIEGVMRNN

B1: TPP-14293 hIgG1 (antibody, V domains shown)
VH: EVQLLESGGGLVQPGGSLRLSCAASGFTFDDYAMSWVRQAPGKGLEWVSAIGTGGGTYYADSVKGRFTISRDNSKNTLYLQMNSLRAEDTAVYYCDREYYDSSGYYHLDYWGQGTLVTVSS
VL: QSVLTQPPSASGTPGQRVTISCTGSSSNIGATYDVHWYQQLPGTAPKLLIYSNNQRPSGVPDRFSGSKSGTSASLAISGLRSEDEADYYCAAWDWSLSGWVFGGGTKLTVLG
B1: in the assay with human alpha2-Antiplasmin [1], the “function blocking activity [IC50 M], 1st exp.” value came to 46 nM; the “function blocking activity [IC50 M], 2nd exp.” value was found to be 48 nM; the “function blocking activity [IC50 M], 3rd exp.” value worked out at 50 nM. Also, in the assay with human Plasmin, the “IC50 [M], inhibition of plasmin proteolytic activity” value (“IC50 [M], inhibition” for short) is > 5e-06 M. The molecule also yielded an EC50 in the assay with human alpha2-Antiplasmin [2] of 12 nM. This molecule returned a half-maximal effective concentration (EC50) with human alpha2-Antiplasmin [3] of 12 nM. Further, in the assay with human alpha2-Antiplasmin [4], the EC50 was determined as 12 nM. The “EC50 (read off the curve); function blocking assay (Example 4), RFU of plasmin substrate cleavage” value (“EC50 … of plasmin substrate cleavage” for short) in the assay with human alpha2-Antiplasmin [5] is ~50 nM.

B2: TPP-17048 hIgG1 (antibody, V domains shown)
VH: EVQLLESGGGLVQPGGSLRLSCAASGFTFSDYAMSWVRQAPGKGLEWVSAIGTGGSTYYADSVKGRFTISRDNSKNTLYLQMNSLRAEDTAVYYCAREGYDSSGYYHLDYWGQGTLVTVSS
VL: QSVLTQPPSASGTPGQRVTISCTGSSSNIGATYDVHWYQQLPGTAPKLLIYSNNQRPSGVPDRFSGSKSGTSASLAISGLRSEDEADYYCAAWDWSLSGWVFGGGTKLTVLG
notes: Germline variant of TPP-14308
Consider B2, for which the “IC50, A2AP function blocking assay (Example 10)” value in the assay with human alpha2-Antiplasmin [6] amounted to 1.2 nM. Moreover, the “function blocking activity [IC50 M], 1st exp.” value with human alpha2-Antiplasmin [7] turned out to be 0.28 nM. The “function blocking activity [IC50 M], 2nd exp.” value with human alpha2-Antiplasmin [7] stood at 0.39 nM. For the same molecule, the “function blocking activity [IC50 M], 3rd exp.” value with human alpha2-Antiplasmin [7] is 0.3 nM. The “IC50 [M], inhibition” value in the assay with human Plasmin is > 1e-05 M. Also, in the assay with human alpha2-Antiplasmin [8], the “EC50 … of plasmin substrate cleavage” value was ~0.3 nM. The “EC50 (read off the curve)” value in the assay with human alpha2-Antiplasmin [9] is ~0.2 nM. In addition, the 50% effective concentration (EC50) is 0.18 nM in the assay with human alpha2-Antiplasmin [10] and 0.36 nM with human alpha2-Antiplasmin [11]. For the same molecule, the equilibrium dissociation constant (Kd) with human alpha2-Antiplasmin [12] is 7.9 nM; in [13], 9.7 nM; in assay [14], 5.8 nM.

B3: TPP-17053 hIgG1 (antibody, V domains shown)
VH: EVQLLESGGGLVQPGGSLRLSCAASGFTFDDYAMSWVRQAPGKGLEWVSAIGSGGSTYYADSVKGRFTISRDNSKNTLYLQMNSLRAEDTAVYYCAREGYDSSGYYHLDYWGQGTLVTVSS
VL: QSVLTQPPSASGTPGQRVTISCTGSSSNIGATYDVHWYQQLPGTAPKLLIYSNNQRPSGVPDRFSGSKSGTSASLAISGLRSEDEADYYCAAWDWSLSGWVFGGGTKLTVLG
notes: Germline variant of TPP-14308
With B3, in the assay with human alpha2-Antiplasmin [6], the “IC50, A2AP function blocking assay (Example 10)” value was 0.15 nM. The “function blocking activity [IC50 M], 1st exp.” value with human alpha2-Antiplasmin [7] is 0.43 nM. In the assay with human alpha2-Antiplasmin [7], the “function blocking activity [IC50 M], 2nd exp.” value was found to be 0.65 nM. In addition, in the assay with human alpha2-Antiplasmin [7], the “function blocking activity [IC50 M], 3rd exp.” value was found to be 0.5 nM. Besides, the “IC50 [M], inhibition” value with human Plasmin was > 1e-05 M. In addition, in the assay with human alpha2-Antiplasmin [15], the “EC50 … of plasmin substrate cleavage” value is ~0.4 nM. The concentration for a half-maximal effect (EC50 (read off the curve)) with human alpha2-Antiplasmin [16] is ~0.5 nM. For the same molecule, the concentration giving a half-maximal response (EC50) with human alpha2-Antiplasmin [10] was found to be 0.52 nM; in the assay with human alpha2-Antiplasmin [11] it was 0.58 nM; with human alpha2-Antiplasmin [17] it was 0.63 nM. In addition, the Kd with human alpha2-Antiplasmin [12] was determined as 11 nM; in [13] it was 28 nM; in assay [14], 8.7 nM.

In general, EC50 refers to the concentration giving half of the maximal effect. For orientation: EC50 (read off the curve) means the concentration giving half of the maximal effect. Broadly, the Kd is the free concentration of one partner at which half of the binding sites on the other are occupied at equilibrium, for simple one-to-one binding.
